The results in this text go back to US20220363758A1 (SORRENTO THERAPEUTICS, published 2022).

Positions count from the first letter of the chain named. Names and notes keep the numbering of the source.

The chains are these.
B1: CD38 A2-3H10m1 assembled with CD3-scFv tsm #2 (bispecific antibody, human IgG1, lambda, L234A L235A)
chain: EVQLVQSGAEVKKPGASVKVSCKASGYTFVSYTMHWVRQAPGQGLEWMGYINPRSGYTHYNQKLKDRATLTADKSASTAYMELSSLRSEDTAVYYCARSAYYDYDGFAYWGQGTLVTVSSGGGGSGGGGSGGGGSGGGGSDIQMTQSPSSLSASVGDRVTITCSASSSVSYMNWYQQKPGKAPKRLIYDTSKLASGVPSRFSGSGSGTDFTLTISSLQPEDFATYYCQQWSSNPPTFGGGTKVEIKGGSGGDKTHTCPPCPAPEAAGGPSVFLFPPKPKDTLMISRTPEVTCVVVDVSHEDPEVKFNWYVDGVEVHNAKTKPREEQYNSTYRVVSVLTVLHQDWLNGKEYKCKVSNKALPAPIEKTISKAKGQPREPQVYTLPPSREEMTKNQVSLSCAVKGFYPSDIAVEWESNGQPENNYKTTPPVLDSDGSFFLVSKLTVDKSRWQQGNVFSCSVMHEALHNHYTQKSLSLSPGK
heavy: QVQLVESGGGLVKPGGSLRLSCAASGFTFSDDYMSWIRQAPGKGLEWVASVSNGRPTTYYADSVRGRFTISRDNAKNSLYLQMNSLRAEDTAVYYCAREGWSGEFTDWGQGTLVTVSSASTKGPSVFPLAPSSKSTSGGTAALGCLVKDYFPEPVTVSWNSGALTSGVHTFPAVLQSSGLYSLSSVVTVPSSSLGTQTYICNVNHKPSNTKVDKRVEPKSCDKTHTCPPCPAPEAAGGPSVFLFPPKPKDTLMISRTPEVTCVVVDVSHEDPEVKFNWYVDGVEVHNAKTKPREEQYNSTYRVVSVLTVLHQDWLNGKEYKCKVSNKALPAPIEKTISKAKGQPREPQVYTLPPSREEMTKNQVSLWCLVKGFYPSDIAVEWESNGQPENNYKTTPPVLDSDGSFFLYSKLTVDKSRWQQGNVFSCSVMHEALHNHYTQKSLSLSPGK
light: not shown
B2: CD38 A2-3H10m1 assembled with CD3-scFv tsm #4 (bispecific antibody, human IgG1, lambda, L234A L235A)
chain: B1 chain with M48I
heavy: B1 heavy
light: not shown
B3: CD38A2-3H10m1/CD3tsm #1-scFvg1LALA-knob-in-hole bispecific antibody (bispecific antibody, human IgG1, lambda, L234A L235A)
chain: B1 chain with V30I, M48I
heavy: B1 heavy
light: not shown
notes: Three chains: anti-CD3 scFv-Fc (hole, LALA), anti-CD38 heavy chain (knob, LALA) and anti-CD38 lambda light chain; also called CD38 A2-3H10m1 assembled with CD3-scFv tsm #1; CD38A2-3H10m1/CD3tsm #1 IgG-scFv
B4: CD38 A2-3H10m1 assembled with CD3-scFv tsm #3 (bispecific antibody, human IgG1, lambda, L234A L235A)
chain: B1 chain with V30I, M48I, R67K
heavy: B1 heavy
light: not shown
B5: Hu291 mAb (antibody, V domains shown)
VH: EVQLVQSGAEVKKPGASVKVSCKASGYTFISYTMHWVRQAPGQGLEWMGYINPRSGYTHYNQKLKDKATLTADKSASTAYMELSSLRSEDTAVYYCARSAYYDYDGFAYWGQGTLVTVSS
VL: DIQMTQSPSSLSASVGDRVTITCSASSSVSYMNWYQQKPGKAPKRLIYDTSKLASGVPSRFSGSGSGTDFTLTISSLQPEDFATYYCQQWSSNPPTFGGGTKVEIK
notes: also called Hum291 anti-CD3 mAb; HuM291 mAb
B6: CD38 A2-3H10m1 assembled with CD3-scFv tsm #5 (bispecific antibody, human IgG1, lambda, L234A L235A)
chain: B1 chain with V30I
heavy: B1 heavy
light: not shown
B7: CD38 A2-3H10m1 assembled with CD3-scFv tsm #7 (bispecific antibody, human IgG1, lambda, L234A L235A)
chain: B1 chain with V30I, R67K
heavy: B1 heavy
light: not shown
notes: tsm #7 carries the wild type HuM291 VH
B8: CD38 A2-3H10m1 assembled with CD3-scFv tsm #6 (bispecific antibody, human IgG1, lambda, L234A L235A)
chain: B1 chain with R67K
heavy: B1 heavy
light: not shown
B9: CD38 D8-3A1/CD3 (M48I/K67R) bispecific antibody (bispecific antibody, human IgG1, lambda, L234A L235A)
chain: B1 chain with V30I, M48I
heavy: QVQLVESGGGVVQPGGSLRLSCAASGFNVRTKYVHWVRQAPGKGLEWVSGIYSDPYTSYAYSDSVKGRFTISRDMSKNTVYLQMNRLRAEDTAVYYCARETNTGFSNSWYLDFWGQGTLVTVSSASTKGPSVFPLAPSSKSTSGGTAALGCLVKDYFPEPVTVSWNSGALTSGVHTFPAVLQSSGLYSLSSVVTVPSSSLGTQTYICNVNHKPSNTKVDKRVEPKSCDKTHTCPPCPAPEAAGGPSVFLFPPKPKDTLMISRTPEVTCVVVDVSHEDPEVKFNWYVDGVEVHNAKTKPREEQYNSTYRVVSVLTVLHQDWLNGKEYKCKVSNKALPAPIEKTISKAKGQPREPQVYTLPPSREEMTKNQVSLWCLVKGFYPSDIAVEWESNGQPENNYKTTPPVLDSDGSFFLYSKLTVDKSRWQQGNVFSCSVMHEALHNHYTQKSLSLSPGK
light: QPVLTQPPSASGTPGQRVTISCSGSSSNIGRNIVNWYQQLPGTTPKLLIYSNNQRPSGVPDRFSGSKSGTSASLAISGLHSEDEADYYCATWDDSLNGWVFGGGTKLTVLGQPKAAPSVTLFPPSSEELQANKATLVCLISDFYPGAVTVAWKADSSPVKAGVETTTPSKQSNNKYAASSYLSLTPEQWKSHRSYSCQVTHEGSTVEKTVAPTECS
B10: CD38 A2/CD3 (M48I/K67R) bispecific antibody (bispecific antibody, human IgG1, lambda, L234A L235A)
chain: B1 chain with V30I, M48I
heavy: B1 heavy with G100D, S102G
light: not shown
B11: CD38 D8-1B5/CD3 (M48I/K67R) bispecific antibody (bispecific antibody, human IgG1, lambda, L234A L235A)
chain: B1 chain with V30I, M48I
heavy: B9 heavy with F27L, V29A, K32N
light: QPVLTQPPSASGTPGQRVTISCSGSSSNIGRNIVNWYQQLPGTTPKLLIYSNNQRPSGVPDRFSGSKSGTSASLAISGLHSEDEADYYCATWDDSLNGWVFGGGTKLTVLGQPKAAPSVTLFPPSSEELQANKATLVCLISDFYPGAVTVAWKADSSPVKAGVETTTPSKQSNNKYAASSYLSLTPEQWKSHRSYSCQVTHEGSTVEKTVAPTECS
B12: CD38 D8/CD3 (M48I/K67R) bispecific antibody (bispecific antibody, human IgG1, lambda, L234A L235A)
chain: B1 chain with V30I, M48I
heavy: B9 heavy with N28I, R30S, K32N
light: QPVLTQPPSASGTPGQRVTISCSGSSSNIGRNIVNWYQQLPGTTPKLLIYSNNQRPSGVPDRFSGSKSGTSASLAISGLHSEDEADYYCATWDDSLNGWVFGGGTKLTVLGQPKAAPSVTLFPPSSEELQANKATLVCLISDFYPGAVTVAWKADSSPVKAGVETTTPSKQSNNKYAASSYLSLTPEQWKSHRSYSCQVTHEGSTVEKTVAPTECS
B13: CD38 D8-3E1/CD3 (M48I/K67R) bispecific antibody (bispecific antibody, human IgG1, lambda, L234A L235A)
chain: B1 chain with V30I, M48I
heavy: B9 heavy with G26K, F27L, R30S, T31P
light: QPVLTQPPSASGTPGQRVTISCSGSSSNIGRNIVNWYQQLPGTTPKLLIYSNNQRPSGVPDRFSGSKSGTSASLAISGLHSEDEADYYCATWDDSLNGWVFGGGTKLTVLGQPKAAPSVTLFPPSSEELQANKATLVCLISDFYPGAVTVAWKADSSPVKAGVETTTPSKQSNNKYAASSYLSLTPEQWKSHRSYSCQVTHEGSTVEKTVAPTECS
notes: also called CD38 D8-3E1/CD3 (M481/K67R)
B14: CD38 D8-3A1/CD3 mAb (antibody, V domains shown)
VH: QVQLVESGGGVVQPGGSLRLSCAASGFNVRTKYVHWVRQAPGKGLEWVSGIYSDPYTSYAYSDSVKGRFTISRDMSKNTVYLQMNRLRAEDTAVYYCARETNTGFSNSWYLDFWGQGTLVTVSS
VL: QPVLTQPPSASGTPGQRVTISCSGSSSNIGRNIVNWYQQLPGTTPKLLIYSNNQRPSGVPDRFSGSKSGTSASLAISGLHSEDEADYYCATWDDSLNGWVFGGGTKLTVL
notes: stands beside the row 'CD38 D8-3A1/CD3 IgG-scFv', so it is another molecule than m27
B15: CD3-tsm#7 (WT) scFv-Fc fusion (Fc fusion)
chain: B1 chain with V30I, R67K
notes: Wild type HuM291 VH; As for CD3-tsm#1: scFv g1 Fc fusion chain; also called wild type Hum291 scFv
B16: CD3-tsm#4 (I30V/M48I/K67R) scFv-Fc fusion (Fc fusion)
chain: B1 chain with M48I
notes: As for CD3-tsm#1: scFv g1 Fc fusion chain
B17: CD3-tsm#2 (I30V/K67R) scFv-Fc fusion (Fc fusion)
chain: B1 chain
notes: as for B16
B18: CD3-tsm#6 (I30V) scFv-Fc fusion (Fc fusion)
chain: B1 chain with R67K
notes: As for CD3-tsm#1: scFv g1 Fc fusion chain; also called CD3-tsm#6 ( (BOV))
B19: CD3-tsm#5 (K67R) scFv-Fc fusion (Fc fusion)
chain: B1 chain with V30I
notes: as for B16
B20: CD3-tsm#1 (M48I/K67R) scFv-Fc fusion (Fc fusion)
chain: B1 chain with V30I, M48I
notes: also called CD3 scFv-Fc fusion, VH variant M48I/K67R, tsm #1
B21: CD3-tsm#3 (M48I) scFv-Fc fusion (Fc fusion)
chain: B1 chain with V30I, M48I, R67K
notes: as for B16

In one assay the target is T1, CD3 antigen expressed on cells (human CD3 epsilon) (human, UniProt P07766 23-207).
T1 construct: also called cell surface CD3 antigen; CD3 on T cells
As to the kind of experiment: flow cytometry on CD38(-) primary human T cells, mouse anti-human Fc-APC detection, GeoMean RL-H of singlets.
In the case of B1, the “EC50 (read off the curve)” value is ~1 ng/mL.

Regarding B2, the “EC50 (read off the curve)” value is ~0.1 ng/mL.

Regarding B3, the “EC50 (read off the curve)” value is ~0.2 ng/mL. Take B4: the “EC50 (read off the curve)” value is ~0.2 ng/mL. The same measure, in the same setting: the figure for B5 is ~0.02 ng/mL.

In another assay the target is T1, CD3 antigen expressed on cells (human …). The assay is described as above. This is another data set of the same source.
Consider B6, for which the half-maximal effective concentration (EC50 (read off the curve)) was ~0.1 ng/mL. On to B7, for which the “EC50 (read off the curve)” value is ~0.2 ng/mL. The same measure, in the same setting: the figure for B8 is ~0.1 ng/mL; for B5 it is ~0.008 ng/mL.

The target of the next assay is T2, Recombinant human CD38-his tag (human, UniProt P28907 43-300).
T2 construct: also called recombinant CD38 antigen; CD38 antigen; not shown: his tag
Description: SPR (Biacore T200), antibody as captured ligand, CD38 as sample, 1:1 binding model.
In the case of B9, the Kd was found to be 4.95 nM, the koff came to 0.00393 s⁻¹ and the kon was 794000 M⁻¹ s⁻¹. In the same order, the values of B3 are 1.51 nM, 0.00203 s⁻¹ and 1.35e+06 M⁻¹ s⁻¹. The like results for B10 were, in that order, 12.3 nM, 0.00637 s⁻¹ and 517000 M⁻¹ s⁻¹. The like results for B11 were, in that order, 4.52 nM, 0.00388 s⁻¹ and 859000 M⁻¹ s⁻¹. With B12, the Kd worked out at 20.3 nM, the dissociation rate constant (koff) came out at 0.011 s⁻¹ and the kon is 541000 M⁻¹ s⁻¹.

Consider B13, for which the Kd turned out to be 6.55 nM, the koff is 0.00565 s⁻¹ and the on-rate constant (kon) was determined as 862000 M⁻¹ s⁻¹. Turning to B14, the Kd was found to be 9.14 nM, the koff stood at 0.00372 s⁻¹ and the kon came out at 406000 M⁻¹ s⁻¹.

Another assay has as its target T1, CD3 antigen expressed on cells (human …). Description: flow cytometry on CD3-bearing cells (cell type not given).
Molecule B15 returned an EC50 of 200 ng/mL. In the case of B16, the midpoint of the response, the EC50, lay at 100 ng/mL.

Molecule B17 registered an EC50 of 1500 ng/mL.

The molecule B18 registered an EC50 of 100 ng/mL. Molecule B19 came in with an EC50 of 100 ng/mL.

As to B20, the midpoint of the response, the EC50, lay at 200 ng/mL. On the same count and under the same terms, to B21 belongs 200 ng/mL.
